Results reported in patent US20250114463A1, “LIVER-TARGETED DRUG AND USE THEREOF” (HANMI PHARM. CO., LTD., priority 2021, published 2025).
Where a chain is given by its changes, count along the chain named. Bridges are numbered along the chain shown (N, C = ends). Where no end group is shown, it is not given here. [ ]: non-standard residue; d: D form. The star is where a group is joined. Acetyl(2-(4-imidazolyl)) = O=C(Cc1c[nH]cn1)*; Aib = CC(C)(N)C(=O)O

T1: human GIP receptor (human, UniProt P48546 22-466)
T1 sequence (looked up): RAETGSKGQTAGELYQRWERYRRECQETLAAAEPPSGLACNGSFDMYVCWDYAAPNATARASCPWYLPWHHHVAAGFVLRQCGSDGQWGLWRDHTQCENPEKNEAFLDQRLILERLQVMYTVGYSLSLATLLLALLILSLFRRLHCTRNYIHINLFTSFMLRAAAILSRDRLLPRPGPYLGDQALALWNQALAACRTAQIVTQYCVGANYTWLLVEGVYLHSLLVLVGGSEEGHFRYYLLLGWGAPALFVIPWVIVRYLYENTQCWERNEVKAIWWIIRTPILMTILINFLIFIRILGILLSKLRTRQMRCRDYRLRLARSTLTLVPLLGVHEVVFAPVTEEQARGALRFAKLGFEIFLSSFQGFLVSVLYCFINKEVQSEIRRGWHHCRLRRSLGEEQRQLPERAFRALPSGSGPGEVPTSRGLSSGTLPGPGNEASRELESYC

B1: triple agonist of SEQ ID NO: 40 (peptide)
peptide: HXQGTFTSDKSKYLDERACQDFVQWLLDGGPSSGAPPPS
HELM: PEPTIDE1{H.[Aib].Q.G.T.F.T.S.D.K.S.K.Y.L.D.E.R.A.C.Q.D.F.V.Q.W.L.L.D.G.G.P.S.S.G.A.P.P.P.S.[am]}$$$$V2.0; N-terminus assumed
SMILES: CC(C)C[C@H](NC(=O)[C@H](CC(C)C)NC(=O)[C@H](Cc1c[nH]c2ccccc12)NC(=O)[C@H](CCC(N)=O)NC(=O)[C@@H](NC(=O)[C@H](Cc1ccccc1)NC(=O)[C@H](CC(=O)O)NC(=O)[C@H](CCC(N)=O)NC(=O)[C@H](CS)NC(=O)[C@H](C)NC(=O)[C@H](CCCNC(=N)N)NC(=O)[C@H](CCC(=O)O)NC(=O)[C@H](CC(=O)O)NC(=O)[C@H](CC(C)C)NC(=O)[C@H](Cc1ccc(O)cc1)NC(=O)[C@H](CCCCN)NC(=O)[C@H](CO)NC(=O)[C@H](CCCCN)NC(=O)[C@H](CC(=O)O)NC(=O)[C@H](CO)NC(=O)[C@@H](NC(=O)[C@H](Cc1ccccc1)NC(=O)[C@@H](NC(=O)CNC(=O)[C@H](CCC(N)=O)NC(=O)C(C)(C)NC(=O)[C@@H](N)Cc1c[nH]cn1)[C@@H](C)O)[C@@H](C)O)C(C)C)C(=O)N[C@@H](CC(=O)O)C(=O)NCC(=O)NCC(=O)N1CCC[C@H]1C(=O)N[C@@H](CO)C(=O)N[C@@H](CO)C(=O)NCC(=O)N[C@@H](C)C(=O)N1CCC[C@H]1C(=O)N1CCC[C@H]1C(=O)N1CCC[C@H]1C(=O)N[C@@H](CO)C(N)=O
B2: triple agonist of SEQ ID NO: 41 (peptide)
peptide: B1 peptide with R17C, C19A
HELM: PEPTIDE1{H.[Aib].Q.G.T.F.T.S.D.K.S.K.Y.L.D.E.C.A.A.Q.D.F.V.Q.W.L.L.D.G.G.P.S.S.G.A.P.P.P.S.[am]}$$$$V2.0; N-terminus assumed
SMILES: CC(C)C[C@H](NC(=O)[C@H](CC(C)C)NC(=O)[C@H](Cc1c[nH]c2ccccc12)NC(=O)[C@H](CCC(N)=O)NC(=O)[C@@H](NC(=O)[C@H](Cc1ccccc1)NC(=O)[C@H](CC(=O)O)NC(=O)[C@H](CCC(N)=O)NC(=O)[C@H](C)NC(=O)[C@H](C)NC(=O)[C@H](CS)NC(=O)[C@H](CCC(=O)O)NC(=O)[C@H](CC(=O)O)NC(=O)[C@H](CC(C)C)NC(=O)[C@H](Cc1ccc(O)cc1)NC(=O)[C@H](CCCCN)NC(=O)[C@H](CO)NC(=O)[C@H](CCCCN)NC(=O)[C@H](CC(=O)O)NC(=O)[C@H](CO)NC(=O)[C@@H](NC(=O)[C@H](Cc1ccccc1)NC(=O)[C@@H](NC(=O)CNC(=O)[C@H](CCC(N)=O)NC(=O)C(C)(C)NC(=O)[C@@H](N)Cc1c[nH]cn1)[C@@H](C)O)[C@@H](C)O)C(C)C)C(=O)N[C@@H](CC(=O)O)C(=O)NCC(=O)NCC(=O)N1CCC[C@H]1C(=O)N[C@@H](CO)C(=O)N[C@@H](CO)C(=O)NCC(=O)N[C@@H](C)C(=O)N1CCC[C@H]1C(=O)N1CCC[C@H]1C(=O)N1CCC[C@H]1C(=O)N[C@@H](CO)C(N)=O

How the values were obtained:
Assay in all cases: cell-based or functional assay
human GIP receptor = biological target: T1, human GIP receptor
human GCG receptor = human GCG receptor (human, UniProt P47871 26-477)
human GLP-1 receptor = human GLP-1 receptor (human, UniProt P43220 24-463)

human GCG receptor, sequence (P47871 26-477): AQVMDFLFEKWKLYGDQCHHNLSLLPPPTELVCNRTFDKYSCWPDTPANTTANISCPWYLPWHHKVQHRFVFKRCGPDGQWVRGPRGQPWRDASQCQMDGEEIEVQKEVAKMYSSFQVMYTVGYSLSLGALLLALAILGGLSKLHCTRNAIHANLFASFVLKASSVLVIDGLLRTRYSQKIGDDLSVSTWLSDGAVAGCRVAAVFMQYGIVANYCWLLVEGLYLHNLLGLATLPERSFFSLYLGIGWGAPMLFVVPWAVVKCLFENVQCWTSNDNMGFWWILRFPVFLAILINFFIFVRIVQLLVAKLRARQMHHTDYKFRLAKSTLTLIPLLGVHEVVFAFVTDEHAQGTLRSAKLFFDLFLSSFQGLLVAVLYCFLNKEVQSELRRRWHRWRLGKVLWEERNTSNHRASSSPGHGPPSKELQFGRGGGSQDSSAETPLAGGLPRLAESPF

Binder | in vitro Activity Compared to Native Peptide (%), vs GIP (human GIP receptor) [%] | in vitro Activity Compared to Native Peptide (%), vs Glucagon (human GCG receptor) [%] | in vitro Activity Compared to Native Peptide (%), vs GLP-1 (human GLP-1 receptor) [%]
[Acetyl(2-(4-imidazolyl))][Aib]QGTFTSDYSICMDEIHQKDFVNWLLNTK (bridge 16-20; not fully specified (C-terminus)) [triple agonist of SEQ ID NO: 49] | 3.3 | < 0.1 | 29.8
H[Aib]QGTFTSDYSKYLDEKRQKEFVQWLLNTC (bridge 16-20; not fully specified (C-terminus)) [triple agonist of SEQ ID NO: 51] | 0.1 | 2 | 14.4
Y[Aib]QGTFTSDYSKYLDEKRAKEFVQWLLDHHCSSGQPPPS-NH2 (bridge 16-20) [triple agonist of SEQ ID NO: 43] | 3.7 | 88.4 | 12.6
B1 | < 0.1 | < 0.1 | 75.2
B2 | < 0.1 | < 0.1 | 34.3
Y[Aib]QGTFTSDYSKYLDEKRAKEFVQWLLDHHPSSGQPPPSC-NH2 (bridge 16-20) [triple agonist of SEQ ID NO: 42] | 7.8 | 206 | 33.9
H[Aib]QGTFTSDVSSYLLGQQQKEFIAWLVKGGGPSSGAPPPSC-NH2 [triple agonist of SEQ ID NO: 5] | < 0.1 | < 0.1 | 42.1
HGQGTFTSDCSKQLDGQAAQEFVAWLLAGGPSSGAPPPS (not fully specified (C-terminus)) [triple agonist of SEQ ID NO: 44] | < 0.1 | < 0.1 | 1.3
HGQGTFTSDCSKYLDGQRAQEFVAWLLAGGPSSGAPPPS (not fully specified (C-terminus)) [triple agonist of SEQ ID NO: 47] | < 0.1 | < 0.1 | 2.4
HGQGTFTSDCSKYLDEQHAQEFVAWLLAGGPSSGAPPPS (not fully specified (C-terminus)) [triple agonist of SEQ ID NO: 46] | < 0.1 | < 0.1 | 1.4
HGQGTFTSDCSKYMDGQAAQDFVAWLLAGGPSSGAPPPS (not fully specified (C-terminus)) [triple agonist of SEQ ID NO: 45] | < 0.1 | < 0.1 | 6.6
HGQGTFTSDCSKYLDGQRAQDFVNWLLAGGPSSGAPPPS (not fully specified (C-terminus)) [triple agonist of SEQ ID NO: 48] | < 0.1 | < 0.1 | 1.5
H[Aib]QGTFTSDYSKYLDEKRQKEFVQWLLDTC (bridge 16-20; not fully specified (C-terminus)) [triple agonist of SEQ ID NO: 52] | 0.3 | 7.5 | 44.1
H[Aib]QGTFTSDYSKYLDEKRAKEFVQWLLDHHPSSGQPPPSC-NH2 (bridge 16-20) [triple agonist of SEQ ID NO: 50] | 2.7 | 50.5 | 67.4
